Measured values published in paper PMC2199935.
One block for each molecule: values may come before it.

How the values were obtained:
[1] = target: beta-catenin (canine (endogenous in MDCK)) (UniProt B6V8E6); assay: co-IP
[2] = target: p120/p100 (anti-p120 immunoreactive material), canine (canine (endogenous in MDCK)); assay: co-IP

percent of the pool in association, normalised to 100% efficiency [1]: 21%
Molecule: p120/p100 (anti-p120 immunoreactive material), canine (natural protein)

percent of the pool in association, normalised to 100% efficiency [2]: 24%
B1: beta-catenin (natural protein)
chain: MATQADLMELDMAMEPDRKAAVSHWQQQSYLDSGIHSGATTTAPSLSGKGNPEEEDVDTTQVLYEWEQGFSQSFTQEQVADIDGQYAMTRAQRVRAAMFPETLDEGMQIPSTQFDAAHPTNVQRLAEPSQMLKHAVVNLINYQDDAELATRAIPELTKLLNDEDQVVVNKAAVMVHQLSKKEASRHAIMRSPQMVSAIVRTMQNTNDVETARCTAGTLHNLSHHREGLLAIFKSGGIPALVKMLGSPVDSVLFYAITTLHNLLLHQEGAKMAVRLAGGLQKMVALLNKTNVKFLAITTDCLQILAYGNQESKLIILASGGPQALVNIMRTYTYEKLLWTTSRVLKVLSVCSSNKPAIVEAGGMQALGLHLTDPSQRLVQNCLWTLRNLSDAATKQEGMEGLLGTLVQLLGSDDINVVTCAAGILSNLTCNNYKNKMMVCQVGGIEALVRTVLRAGDREDITEPAICALRHLTSRHQEAEMAQNAVRLHYGLPVVVKLLHPPSHWPLIKATVGLIRNLALCPANHAPLREQGAIPRLVQLLVRAHQDTQRRTSMGGTQQQFVEGVRMEEIVEGCTGALHILARDVHNRIVIRGLNTIPLFVQLLYSPIENIQRVAAGVLCELAQDKEAAEAIEAEGATAPLTELLHSRNEGVATYAAAVLFRMSEDKPQDYKKRLSVELTSSLFRTEPMAWNETADLGLDIGAQGEPLGYRQDDPSYRSFHSGGYGQDALGMDPMMEHEMGGHHPGADYPVDGLPDLGHAQDLMDGLPPGDSNQLAWFDTDL
